The source of these data is the supplement of paper PMC9170038.

Data set [1] has as its system MS2 coat protein. Kind of data set: apparent KD of MS2 coat protein; higher = weaker reporter binding. As to conditions: Eterna round: R101. On the procedure: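 RNA-MaP: designed FMN/MS2 RNA switches (84 nt design region) are transcribed on-chip within common flanks and titrated with SNAP-549-labelled MS2 coat protein (about 1-3000 nM) in 100 mM Tris pH 7.5, 80 mM KCl, 4 mM MgCl2, without or with 200 uM FMN. Median apparent KD per design; activation ratio = KD,OFF / KD,ON.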

In data set [2] the test system is MS2 coat protein. Kind of data set: apparent KD of MS2 coat protein, switch OFF state (with FMN for OFF switches, without FMN for ON switches); designed switch direction (-1 OFF switch, 1 ON switch): 1; higher = weaker reporter binding. As to conditions: FMN input: 0 or 200 uM; Eterna round: R93 (includes R88 designs). The procedure, abridged:
(§1)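 Apparent KD per design is the median of normalised cluster binding-curve fits. Designed RNA switches transcribed on-chip from Illumina sequencing clusters were titrated with SNAP-549-labelled MS2 coat protein in twofold steps from 0.7 or 1.5 nM to 3 µM, with 0.8–1.5 h down to 10–20 min per step. Buffer: 100 mM Tris-HCl pH 7.5, 80 mM KCl, 4 mM MgCl2, without or with constant ligand.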

The test system of data set [3] is MS2 coat protein. Description: apparent KD of MS2 coat protein, switch ON state; designed switch direction (-1 OFF switch, 1 ON switch): 1; higher = weaker reporter binding. As to conditions: FMN input: 0 or 200 uM; Eterna round: R93 (includes R88 designs). The procedure, abridged:
as §1

Consider “AAAUAACUUGAAGGAUAUGACCCUCGAGGUGACUAAAAGUCACCUCGAGGGUCAGAAGGUCGAGGAUCACCCGACCUAGUGAAA [#SharedSequence SLExNG1: 7-1] (puzzle (switch architecture): Small Loop Exclusion NG 1)”, for which the “apparent KD of MS2 coat protein” value turned out to be 7.61 nM in the data set with MS2 coat protein [1] (input ligand: FMN 200 uM) and 7.54 nM in the data set with MS2 coat protein [1] (input ligand: none).
The matching figures for “AAAGAUUUUCAAGGAUAUCAGUGGCAAAGCCACUGAGAAGGUGAGGAUCACCCACCUACGUGACGCUGGAAACAGCGUCACGAA [#SharedSequence ExNG1 - 26] (puzzle (switch architecture): Exclusion NG 1)”: 64.5 nM and 21 nM.
Take “AAUAAAACUCAAGGAUAUGACUCCGAAACGGAGUCAGAAGGUGAGGAUCACCCACCUAGCUCAGCGUCGAAAGACGCUGAGCAA [#SharedSequence ExNG1 - 32] (puzzle (switch architecture): Exclusion NG 1)”: the “apparent KD of MS2 coat protein” value was 42 nM in the data set on MS2 coat protein [1] (input ligand: FMN 200 uM) and 9.01 nM in the data set with MS2 coat protein [1] (input ligand: none).
On to “AAUAAACAAUAAAAGAGUCCACGAAACUUUUGAGGAUCACCCAGAAGGGCUGAGGUAAUACCUCAGCAGGAUAUGGACGUGGAC [#SharedSequence IExNG# - 3] (puzzle (switch architecture): Inverted Exclusion NG 3)”, for which the results for the “apparent KD of MS2 coat protein” value in the data set on MS2 coat protein [1] (input ligand: FMN 200 uM) and in the data set on MS2 coat protein [1] (input ligand: none) were 86.8 nM and 12.4 nM, respectively.
As for “UUAUUAUGUGUAGGAUAUGCGUAUUAUUAUUAUGCAGAAGGACAUGAGGAUCACCCAUGUAUAUUAUUAUUAUAUAUUAUAUAU (puzzle (switch architecture): Exclusion NG 1)”, the figures for the “apparent KD of MS2 coat protein” value in the data set with MS2 coat protein [1] (input ligand: FMN 200 uM) and in the data set on MS2 coat protein [1] (input ligand: none) were 19.1 nM and 14.7 nM, respectively.
In the same order, the values of “GUGCCUUGGGAGAAGGAUAAUUAAUAAUAAAUAAAAGGAUAUUCAUACCGGAAACGGACAUGAGGAUCACCCAUGUGGCACAAA (puzzle (switch architecture): Inverted Same State NG 1)” are 45.4 nM and 186 nM.
For “GGUACUCAAAGAGUACCAAUACGAACAUGAGGAUCACCCAUGUAGGAUAUGCUACUCAAAGAGUAGCAGAAGGACAUGUGCCUU [salish99_ExNG3_020 #endbits investigation] (puzzle (switch architecture): Exclusion NG 3)”, the “apparent KD of MS2 coat protein” value is 92.3 nM in the data set with MS2 coat protein [1] (input ligand: FMN 200 uM) and 15.1 nM in the data set with MS2 coat protein [1] (input ligand: none).
The matching figures for “ACUUUAUUUGAGAAGGUGAAGUGGAAACAUGAGGAUCACCCAUGUAAUACGAAGCGUAUUUUUAUCAAGGAUAUCAAAUAAAGA [WHB=ISS-NG2-MS2FAR3 #bad] (puzzle (switch architecture): Inverted Same State NG 2)”: 7.58 nM and 10.7 nM.
For the sequence “AGACCUGCUCAGAAGGCGUGUGCGAGGCUGGAAACAGCCUCGAAUUAAAAUCUUCGAGGAUCACCCGAGGAUAUGAGCAGGUCA [#SharedSequence - IExNG2: 20] (puzzle (switch architecture): Inverted Exclusion NG 2)”, the “apparent KD of MS2 coat protein” value is 59.7 nM in the data set on MS2 coat protein [1] (input ligand: FMN 200 uM) and 11.3 nM with MS2 coat protein [1] (input ligand: none).
As for “UCAGUAGAGUCAGGAUAUACAAAAGGCGGUCCAUACAUGAGGAUCACCCAUGUAGAAGGGACUCUACUGUAAGUCGGAAACGAC [#StaticStemDeletion - Eli x2 4.005] (puzzle (switch architecture): Small Loop Exclusion NG 1)”, the “apparent KD of MS2 coat protein” value in the data set with MS2 coat protein [1] (input ligand: FMN 200 uM) amounted to 15.6 nM; in the data set on MS2 coat protein [1] (input ligand: none), 329 nM.
On to “UAUUAUAUAUAGAAGGACAUGAGGAUCACCCAUGUCGCCGGGCCCGGGAAACCGGGCCCGGCCAUGUAGGAUAUAUAUAUAGUA [#This is a good prank 9] (puzzle (switch architecture): Inverted Exclusion NG 2)”, for which the “apparent KD of MS2 coat protein” value in the data set with MS2 coat protein [1] (input ligand: FMN 200 uM) was 7.72 nM; in the data set on MS2 coat protein [1] (input ligand: none), 5.35 nM.
As to “CAAUUGGCACAGAAGGGUGACAUGAGGAUCACCCAUGUAGCGUGGCAUUCAGGAAGAGCCACGCCACAGGAUAUGUGCGGGCAC [Rigeri] (puzzle (switch architecture): Inverted Same State NG 2)”, the “apparent KD of MS2 coat protein” value stood at 31.9 nM in the data set on MS2 coat protein [1] (input ligand: FMN 200 uM) and 24.7 nM with MS2 coat protein [1] (input ligand: none).
In the same order, the values of “CCUGCACCUCAAGGAUAUCCAGUCGUUUCGACUGGAGAAGGUGAGGAUCACCCACCUAGCCUGACGUUUGUCAGGCAUGCAGGU [#AddUracilToBrourdLoops 1 - Jieux - Exclusion NG1] (puzzle (switch architecture): Exclusion NG 1)” are 49.5 nM and 27 nM.
With “AUAAAACAUGAGGAUCACCCAUGUAGAAAUAUGGGAGGAUAUACGAAGACGAAAGUCAAAGUAGAAGGCCUAAAAG [Mat - Same State 1 - Meechl mod - D115]”, the “apparent KD of MS2 coat protein” value was 83.6 nM in the data set with MS2 coat protein [2] and 26.5 nM in the data set with MS2 coat protein [3].
In the same order, the values of “CAGAGACAUGAGGAUCACCCAUGUAGGAUUAUGGGAGGAUAUACAAAGACGAGAGUCAGAGUAGAAGGCCUAGGAC [salish99-ss1-144]” are 45.6 nM and 20.8 nM.
Regarding “AAAAGACAUGAGGAUCACCCAUGUCAAAACAUAGGAGGAUAUGUCUGGAAAAAAGACUGGACAGAAGGCCUUUGUC [SS1 - 59]”, the “apparent KD of MS2 coat protein” value with MS2 coat protein [2] was found to be 18.9 nM; in the data set with MS2 coat protein [3], 15.5 nM.
Consider “AGGAAACAUGAGGAUCACCCAUGUAAGAUAUACACAGGAUAUGCGAAAAGAAACAAAGAAGCAGAAGGGUGGAAAA [75%, Ex sub1, 11]”, for which the “apparent KD of MS2 coat protein” value with MS2 coat protein [2] came to 31.6 nM; in the data set on MS2 coat protein [3], 16.5 nM.
In the same order, the values of “AUAUAAAUAAGGUAGGAUAUACUAAAGUAAACAUGAGGAUCACCCAUGUGAAGAAAGAAACUCAUGUAGAAGGACCAUAUAUAUA [viburnum 2]” are 248 nM and 27.2 nM.
On to “GCAGGGCCACACUAGGAUAUGGGUGUCUAGACAUGAGGAUCACCCAUGUUAUGGCAAAACAAAGCUCAGAAGGAGUCGUGGCCCA [Tizasozaer]”, for which the “apparent KD of MS2 coat protein” value was 36 nM in the data set with MS2 coat protein [2] and 11.8 nM with MS2 coat protein [3].
For the sequence “AUUAUUAUUACGCAGGAUAUCGAGGUUUUUACAUGAGGAUCACCCAUGUUUUUUUUUUUAUAUUACGAGAAGGGCGAUAUUAUUA [salish99-SS2-01]”, the “apparent KD of MS2 coat protein” value in the data set with MS2 coat protein [2] was determined as 21.9 nM; with MS2 coat protein [3], 22.9 nM.
The matching figures for “AAUACACAUGAGGAUCACCCAUGUAGAAACAAGUCAGGAUAUCCGAUCCACAUGUGAUAAGGAGAAGGGACAAUAA [SS 1 Tesla 7]”: 163 nM and 25.5 nM.
The matching figures for “AAAGAAGAAAGACAGGAUAUGGAUGGGUAAACAUGAGGAUCACCCAUGUAUAAGAAAGAAAGAAACCAGAAGGGUCAAAAGAAAA [Darius III]”: 551 nM and 42.7 nM.
In the same order, the values of “AAAUAGUGCAUUAAGGAUAUGUCGCAUGACACAUGAGGAUCACCCAUGUGGUAACACAGAGGGUGGCAGAAGGUAGUGUGCAAAC [Mod 3 of Pariah 6 (Round1) by Hyphema]” are 15.1 nM and 108 nM.
As to “CUCAGGAAGAGAGAGGAUAUCCAAAGGAAAACAUGAGGAUCACCCAUGUAAAAGGUAGGAAAUUGGGAGAAGGCUCAAGAGAGAG [salish99-ss2-096]”, the “apparent KD of MS2 coat protein” value with MS2 coat protein [2] stood at 40 nM; with MS2 coat protein [3], 22.3 nM.
In the same order, the values of “ACCCGAAAGACGUAGGAUAUGUGGUCACCGACAUGAGGAUCACCCAUGUAUGCGGGAGAAUGGGUGCAGAAGGACGCUGUUCGGU [Antilera]” are 192 nM and 21.9 nM.
On to “AAUAUAUUAAGCGAGGAUAUCGAGGAAAAAACAUGAGGAUCACCCAUGUGGGUAAAAAAAAAAAGUGAGAAGGUGCUUAAUAUAU [Samwise Clockwise 9 - Jieux - Same State 2]”, for which the “apparent KD of MS2 coat protein” value in the data set with MS2 coat protein [2] was found to be 74.7 nM; with MS2 coat protein [3], 31.8 nM.
“AACAAACAUGAGGAUCACCCAUGUCAAACAAACCAAGGAUAUGGGAAGCGAGACUCGCUACCAGAAGGUGGAAAUU [Edtigebe]”: the figures for the “apparent KD of MS2 coat protein” value in the data set on MS2 coat protein [2] and in the data set on MS2 coat protein [3] were 176 nM and 43.8 nM, respectively.
For the sequence “AAAACUACAGAUCAGGAUAUGUUUAGGUAAACAUGAGGAUCACCCAUGUGCACCUGAUAAACAACACAGAAGGGAUAACGUGGGA [Geerreleon]”, the “apparent KD of MS2 coat protein” value in the data set on MS2 coat protein [2] was found to be 25.7 nM; in the data set on MS2 coat protein [3] it was 20.7 nM.
As for “GAGAGACAUGAGGAUCACCCAUGUAGGAUUAUGGGAGGAUAUACAAAGACGAGAGUCAGAGUAGAAGGCCUAGGAC [salish99-ss1-140]”, the “apparent KD of MS2 coat protein” value in the data set with MS2 coat protein [2] turned out to be 56.7 nM; in the data set on MS2 coat protein [3], 23.4 nM.
In the case of “AAUAACAAAAGAAAGGAUAUGCGCACAGGAACAUGAGGAUCACCCAUGUGGCCCGAAAGGGCAUAGCAGAAGGUUCACACGCAUA [Default title]”, the entries for the “apparent KD of MS2 coat protein” value with MS2 coat protein [2] and in the data set on MS2 coat protein [3] were 42 nM and 32.7 nM, respectively.
In the same order, the values of “AAAAAACAUGAGGAUCACCCAUGUGCAAAAUUCGCAGGAUAUUCUUUUUUUAAAUGGGAGGGAGAAGGGUGUAAAA [Nob's Hobby 20 - Jieux - Same State 1]” are 21.3 nM and 20.8 nM.
